The source of these data is US20120270914A1, “SPLIT-LUCIFERASE C-MYC SENSOR AND USES THEREOF” (THE BOARD OF TRUSTEES OF THE LELAND STANFORD JUNIOR …, priority 2011, published 2012).

This experiment addresses NFL-c-Myc T581 (firefly) [luciferase: P08659]. The experiment is described as follows: cell-based or functional assay.

Sequence of NFL-c-Myc T581 (firefly) [luciferase: P08659] (P08659 other isoform, or with tags, fused parts or gaps): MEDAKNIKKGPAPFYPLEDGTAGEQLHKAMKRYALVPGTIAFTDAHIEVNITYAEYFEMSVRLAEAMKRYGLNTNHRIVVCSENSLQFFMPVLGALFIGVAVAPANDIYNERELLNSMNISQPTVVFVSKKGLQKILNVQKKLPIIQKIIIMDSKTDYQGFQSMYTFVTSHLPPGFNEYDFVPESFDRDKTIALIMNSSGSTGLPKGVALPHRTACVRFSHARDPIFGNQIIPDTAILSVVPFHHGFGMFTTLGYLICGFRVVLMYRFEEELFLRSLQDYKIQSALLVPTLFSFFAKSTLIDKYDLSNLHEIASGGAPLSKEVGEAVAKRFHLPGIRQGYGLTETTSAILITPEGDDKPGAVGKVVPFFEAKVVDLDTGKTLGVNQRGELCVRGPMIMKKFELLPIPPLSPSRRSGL

B1: GSK 35-433-CFL, P49841 35-420 (protein, not shown: large carriers)
chain: SKVTTVVATPGQGPDRPQEVSYTDTKVIGNGSFGVVYQAKLCDSGELVAIKKVLQDKRFKNRELQIMRKLDHCNIVRLRYFFYSSGEKKDEVYLNLVLDYVPETVYRVARHYSRAKQTLPVIYVKLYMYQLFRSLAYIHSFGICHRDIKPQNLLLDPDTAVLKLCDFGSAKQLVRGEPNVSYICSRYYRAPELIFGATDYTSSIDVWSAGCVLAELLLGQPIFPGDSGVDQLVEIIKVLGTPTREQIREMNPNYTEFKFPQIKAHPWTKDSSGTGHFTSGVRVFRPRTPPEAIALCSRLLEYTPTARLTPLEACAHSFFDELRDPNVKLPNGRDTPALFNFTTQELSSNPPLATILIPPHARIQAAASTPTNATAASDANTGDRGQTNNAASASASNST
modifications: here or on the partner: phosphorylation partially abolished (T58 cannot be phosphorylated)
The molecule B1 returned a complemented FL activity of SKBR3 xenografts in nude mice, normalized to hRL activity, compared with pcDNA3.1(+) vector of 4.7 fold.
